One assay concerns the target rat IgG. The experiment in a line: ELISA positive control, wells coated with 1 µg/ml rat IgG, anti-rat IgG-HRP and TMB.
Assay [1] concerns the target Kv1.3 potassium channel (species not stated for this experiment). The experiment in a line: cell-based or functional assay.

For anti-rat IgG-HRP (antibody), the reading at 450 nm in the assay with rat IgG was determined as 3.3 OD 450 nm. “HA-tagged ShK-235 secreted by LrS235-HA (peptide)” gave a block of peak Kv1.3 currents by culture supernatant (patch-clamp) in assay [1] of 25%.

For the origin of these results see patent publication US20250213627A1, “RECOMBINANT MICROORGANISM-BASED METHODS AND COMPOSITIONS FOR TREATMENT OF DISEASE” (Baylor College of Medicine, priority 2021, published 2025).
